Test results: the supplement of paper PMC9170038

System: K4 kissing-loop RNA reporter
Assay: apparent KD of K4 kissing-loop reporter; higher = weaker reporter binding
Details: Eterna round: R107
Description: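 RNA-MaP round R107: designed RNA switches with theophylline, tryptophan, arginine or FMN aptamers are transcribed on-chip within common flanks. They are titrated with a labelled K4 kissing-loop RNA reporter in RNA-MaP buffer (100 mM Tris pH 7.5, 80 mM KCl, 4 mM MgCl2), without ligand or with the indicated ligand. Median apparent KD per design.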

[1] = input ligand: theophylline 20 uM
[2] = input ligand: tryptophan 2.4 mM
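Further: bound reporter read as fluorescence of individual clusters on recovered sequencing chips by microscopy, with normalized cluster intensities fitted with a binding model.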

Sequence	apparent KD of K4 kissing-loop reporter (input ligand: FMN 200 uM) [nM]	apparent KD of K4 kissing-loop reporter (input ligand: arginine 13.2 mM) [nM]	apparent KD of K4 kissing-loop reporter (input ligand: none) [nM]	apparent KD of K4 kissing-loop reporter [1] [nM]	apparent KD of K4 kissing-loop reporter [2] [nM]
GUUACGCAUGGAAGGAGCGCGAAUUUAAUUAGUGAGUGAUGUUCACAUAAAAUAUAUAAUACGCAGGUAGGUCGCCAUGUGUAAC [Ex Arginine B K4 1]	80.8	83.1	79.3	82.8	75
GUUAUUCUAAACGCAGUAGUGAUGUUGAUGCGAGGACCGGUACGGCCGCCACUCGACUGCCGUCACGCCCGUCCAACAGCCGGAG [theeternabot_exclusion_KL_Trp_A_20]	431	142	478	254	268
UAAAAUAAAUAAUAGAGAUAAUUACUCGAAGGAGCGACGAAUUCGUCAGGUAGGUCGCGAGUGAUGUUCGCAAAUAUUAUCUCAU [AK3 Exc Arginine A]	212	328	295	345	261
UAAAUCACACGAGAUACCAGCCAAACCGAACUUGAGCACUAUAGUGAUGUUAUAUUGCGAGGCCCUUGGCAGCUCAAUAGAACAA [theeternabot_sameState_KL_Theo_B_11]	213	174	190	145	182
UAACGCUGACAGCAACAAUUCGGGCCUGAUACCAGCAAUUUUUCAUGCCCUUGGCAGCAGAGUGAUGUUUUCUGUCUAUUUAGUC [theeternabot_exclusion_KL_Theo_A_23]	628	723	864	700	520
UAACUCUUGCAGUGAUGUUGCAAGUAUGCUCAGGAUAUCAGGAAACUGAGAAGGGAGUUUCCUGAGCUUCUGCAAGAGCUCAGAA [KL-SSFMN-A6]	618	408	547	375	382
UAAGAAUAAGAUGCAGUGAUGUUGCAUCUACGAGGACCGGUACGGCCGCCACUCGAGGUCCUCGAACUGCAUCAGAGGACAAUAA [(H,1)-(H,2)-(Trp1)-(Trp2)-(T)'-(H)'-(T)'']	253	184	286	390	300
UAAGAAUAAGUAGCAGUGAUGUUGCUACUACGAGGACCGGUACGGCCGCCACUCGAGCCGUACCAUAACAUCACUGAGGUACGAA [(H1)-(H2)-(Trp1)-(Trp2)-(T)'-(H)'-(T)'']	231	175	264	292	272
UAAGAAUAGCAUGCAGUGAUGUUGCAUGUCCGAGGACCGGUACGGCCGCCACUCGAGUCCUCGAACAUGCACCGAGGAAUAACAA [#19 K4 Tryptophan A Same State]	108	79.6	109	107	124
UAAUAAAUUCCAGCGAUAUCGCUCUUCGAAGGAGCGGACGAAAGUCCAGGUAGGUCGCGGAGAGUGAUGUUCUUUGCGGCGCUGG [whbob_Ex_Arginine_A_2t133]	450	177	356	298	266
UAAUCACUCGAACUUGCAACUCGAGUGGAACGAGGACCGGUACGGCCGCCACUCGAUAACUUGCAGUGAUGUUGCAAGUAAGAAU [(T)''-(K)'-(T)'-(T1)-(T2)-(K1)-(K2)_Design8]	333	341	411	411	219
UAAUGUGGCACAGGAUAUACUGAUUGGAGUGAUGUUCCAAACAUGAACAAGAGACUUUUACAAGAAGUAGAAGGGUGUUAGAUAU [Exclusion FMN B GF 19]	269	265	223	295	223
UACAAACGUAGUGAUGUUACGUACUCUGAUACCAGACAACUCUAAGUCCCUUGGCAGCAGUCACUUAGCUUAUUAUUUUCUCAAA [JR_Nu_ExcTheophyA_Sub026]	106	134	116	130	103
UACAGGGAUAGUGAUGUUAUCCCAUGUGAUACCAGUGCCAUCCAACACCCUUGGCAGCAUACGGGCAGUGAUGUUGUUCUUGGUA [#16 K4 Theophylline A Exclusion]	89.8	79.8	86	86.1	80.1
UACAUAUUAUUUAACAUAAAUUUUACAGAAGGAGCGUGAUCAUUCACAGGUAGGUCGCUGAACUAGUGAUGUUAGUUUUAUUUUU [JR_Nu_ExcArginiA_Sub025]	62.7	96.1	71.5	97	57.3
UACUAUAGUGAUGUUAUAGAUAAACCAGAUACCAGUGUAACAUAACACCCUUGGCAGCUGAUGAGGGAACAUAUGAAUGCAUAUG [AstrosSSTHe-A#5newdesignED5.11]	196	166	179	178	163
UACUAUAGUGAUGUUAUAGAUAAACCAGAUACCAGUGUAACAUAACACCCUUGGCAGCUGAUGAGGGAACUAUUGAAAACAAUAG [AstroSTH-A#7newdesignED4.86]	248	203	267	223	217
UACUAUAGUGAUGUUAUAGAUAAACCAGAUACCAGUGUAACAUAACACCCUUGGCAGCUGAUGAGGGAAGAUAUCAAAAGAUAUC [AstroSTH-A#9newdesignED4.70]	218	218	202	247	199
UAGUCCUAGUGAUCGUUAUCACGUGGUGGGCGAGGACCGGUACGGCCGCCACUCGACUAUGCAGUGAUGUUGCAAUCCGGACAAU [Exclusion - Tryptophan A (Freestyle 15)]	294	436	477	325	145
UAGUGUCGCGCAGGAUAUACUGAUUGGAGUGAUGUUCCAAACAUGCACGUGUGACUUUUACAAGAAGUAGAAGGGCGUGAGACAU [Exclusion FMN B GF 22]	303	200	184	198	179
UAUAUAGUGACGGCCGCCACUAUUGUGAUGUUAUUGUUAGAGUGAUGUUUUGUUGUUUAAUUUUGUAGGACCGGGUUAUAUGUUA [xxzsmullin]	846	451	568	530	543
